Measurements: the Human Domainome abundance scans (Beltran et al. 2025)
± gives the uncertainty stated by the source.

B1: Membrane-associated guanylate kinase, WW and PDZ domain-containing protein 2, residues 601 to 682; numbered along this chain, Q86UL8 (parent)
chain: AELMTLTIVKGAQGFGFTIADSPTGQRVKQILDIQGCPGLCEGDLIVEINQQNVQNLSHTEVVDILKDCPIGSETSLIIHRG

Variants of: B1
Assay: abundance fitness (aPCA) (normalised: wild type 0, dead -1); higher = more abundant; growth selection in yeast, the domain comes from the species named
Settings: Homo sapiens

| Variant | abundance fitness |
| --- | --- |
| P70L | -0.085 ± 0.11 |
| P70S | -0.001 ± 0.12 |
| P70A | -0.227 ± 0.099 |
| P70E | 0.007 ± 0.082 |
| P70F | -0.074 ± 0.12 |
| P70W | -0.087 ± 0.12 |
| P70N | -0.089 ± 0.23 |
| P70R | -0.003 ± 0.067 |
| P70D | 0.077 ± 0.29 |
| P70C | -0.315 ± 0.19 |
| P70Q | -0.084 ± 0.13 |
| P70K | -0.056 ± 0.24 |
| P70H | -0.107 ± 0.11 |
| P70T | -0.108 ± 0.12 |
| P70M | -0.098 ± 0.12 |
| P70G | -0.185 ± 0.076 |
| L66W | -0.521 ± 0.12 |
| L66Y | -0.736 ± 0.45 |
| L66T | -0.589 ± 0.47 |
| L66V | -0.235 ± 0.13 |
| I79F | -0.046 ± 0.17 |
| I79M | -0.005 ± 0.16 |
| I79T | -0.063 ± 0.12 |

| Variant | abundance fitness |
| --- | --- |
| I79K | -0.534 ± 0.16 |
| I79C | -0.115 ± 0.12 |
| I79Q | -0.73 ± 0.27 |
| I79W | -0.467 ± 0.17 |
| I79A | -0.214 ± 0.14 |
| I79L | 0.036 ± 0.077 |
| I79S | -0.314 ± 0.11 |
| I79R | -0.24 ± 0.064 |
| I79V | -0.102 ± 0.073 |
| I79G | -0.42 ± 0.11 |
| C69M | -0.102 ± 0.12 |
| C69A | -0.029 ± 0.07 |
| C69P | -0.421 ± 0.22 |
| C69T | 0.085 ± 0.11 |
| C69L | -0.064 ± 0.11 |
| C69S | 0.177 ± 0.18 |
| C69V | -0.03 ± 0.065 |
| C69H | -0.329 ± 0.2 |
| C69G | -0.059 ± 0.061 |
| C69N | -0.195 ± 0.16 |
| C69K | 0.108 ± 0.14 |
| C69W | -0.25 ± 0.11 |
| C69R | -0.08 ± 0.08 |

| Variant | abundance fitness |
| --- | --- |
| C69Q | -0.125 ± 0.13 |
| C69Y | -0.174 ± 0.12 |
| C69D | -0.27 ± 0.13 |
| C69E | -0.086 ± 0.094 |
| L77A | -0.124 ± 0.07 |
| L77V | -0.03 ± 0.062 |
| L77D | -1.28 ± 0.48 |
| L77T | -0.132 ± 0.12 |
| L77R | -1.17 ± 0.28 |
| L77I | 0.24 ± 0.29 |
| L77K | -0.892 ± 0.31 |
| L77E | -1.12 ± 0.38 |
| L77F | -0.05 ± 0.38 |
| L77M | 0.008 ± 0.12 |
| L77S | -0.583 ± 0.15 |
| L77W | -0.072 ± 0.075 |
| L77G | -1.02 ± 0.15 |
| L77P | -0.86 ± 0.24 |
| T75C | -0.331 ± 0.2 |
| T75K | -0.133 ± 0.11 |
| T75E | -0.072 ± 0.11 |
| T75V | 0.013 ± 0.091 |
| T75A | 0.101 ± 0.079 |

| Variant | abundance fitness |
| --- | --- |
| T75M | 0.047 ± 0.11 |
| T75L | -0.045 ± 0.072 |
| T75S | -0.331 ± 0.082 |
| T75F | -0.02 ± 0.16 |
| T75P | -0.164 ± 0.078 |
| T75D | -0.09 ± 0.21 |
| T75I | -0.101 ± 0.4 |
| T75Y | -0.151 ± 0.12 |
| T75N | -0.115 ± 0.19 |
| T75R | -0.113 ± 0.075 |
| T75G | -0.08 ± 0.063 |
| T75Q | -0.148 ± 0.14 |
| S76V | -0.031 ± 0.063 |
| S76W | -0.123 ± 0.076 |
| S76D | -0.124 ± 0.098 |
| S76H | -0.668 ± 0.29 |
| S76C | 0.016 ± 0.12 |
| S76P | -0.046 ± 0.072 |
| S76A | -0.018 ± 0.074 |
| S76E | -0.044 ± 0.14 |
| S76M | -0.003 ± 0.11 |
| S76Q | 0 ± 0.1 |
| S76Y | 0.09 ± 0.21 |

| Variant | abundance fitness |
| --- | --- |
| S76L | -0.061 ± 0.077 |
| S76I | -0.118 ± 0.14 |
| S76R | -0.021 ± 0.054 |
| S76T | -0.053 ± 0.087 |
| S76N | -0.003 ± 0.2 |
| D68W | -0.166 ± 0.15 |
| D68Y | 0.011 ± 0.24 |
| D68M | 0.027 ± 0.15 |
| D68C | -0.101 ± 0.14 |
| D68P | -0.233 ± 0.26 |
| D68Q | 0.07 ± 0.11 |
| D68G | -0.057 ± 0.1 |
| D68K | 0.005 ± 0.13 |
| D68H | 0.222 ± 0.28 |
| D68F | -0.304 ± 0.5 |
| D68V | 0.046 ± 0.082 |
| D68R | -0.136 ± 0.068 |
| D68A | -0.14 ± 0.15 |
| D68T | -0.153 ± 0.095 |
| D68L | -0.138 ± 0.086 |
| D68I | -0.271 ± 0.18 |
| D68E | -0.022 ± 0.088 |
| S73R | -0.132 ± 0.089 |

| Variant | abundance fitness |
| --- | --- |
| S73G | 0.095 ± 0.081 |
| S73V | -0.025 ± 0.067 |
| S73W | -0.06 ± 0.091 |
| S73Y | -0.178 ± 0.19 |
| S73K | -0.044 ± 0.092 |
| S73N | -0.359 ± 0.33 |
| S73H | 0.024 ± 0.15 |
| S73I | -0.011 ± 0.18 |
| S73A | 0.021 ± 0.065 |
| S73P | -0.048 ± 0.1 |
| S73L | -0.102 ± 0.14 |
| S73M | -0.004 ± 0.14 |
| S73F | 0.029 ± 0.19 |
| S73Q | -0.098 ± 0.11 |
| S73T | -0.095 ± 0.12 |
| I78N | -0.011 ± 0.2 |
| I78P | -1.13 ± 0.49 |
| I78E | -0.086 ± 0.17 |
| I78G | -0.075 ± 0.068 |
| I78A | -0.179 ± 0.12 |
| I78Q | -0.23 ± 0.14 |
